Data from patent publication US20100015126A1, “Methods of Binding of Cross-Beta Structures By Chaperones” (priority 2006, published 2010).

Tests used:
[1] = Transmission electron microscopy (TEM); assay type: physicochemical; settings: for TEM: 2.5 mg/ml peptide stocks; for Appearance on TEM images: magnification 10K
Protocol: Transmission Electron Microscopy (TEM)
TEM images were collected using a Jeol 1200 EX transmission electron microscope (Jeol Ltd., Tokyo, Japan) at an excitation voltage of 80 kV. For each sample, the formvar and carbon-coated side of a 100-mesh copper or nickel grid was positioned on a 5 μl drop of protein solution for 5 minutes. Afterwards, it was positioned on a 100 μl drop of PBS for 2 minutes, followed by three 2-minute incubations with a 100 μl drop of distilled water. The grids were then stained for 2 minutes with a 100 μl drop of 2% (m/v) methylcellulose with 0.4% uranyl acetate pH 4. Excess fluid was removed by streaking the side of the grids over filter paper, and the grids were subsequently dried under a lamp. Samples were analysed at a magnification of 10K.

human BiP [2] = biological target: T1, human BiP (Homo sapiens, UniProt P11021); experiment: ELISA: binding of BiP in cell culture supernatant to immobilized misfolded proteins; settings: undiluted supernatant of 293E cells overexpressing BiP; ligands coated at 5 μg/ml, Aβ 20 μg/ml
T1 construct: The human BiP gene except the signal peptide encoding region was obtained from Geneart (Germany); linker […]; made in house; host or cells: HEK 293E cells, transient transfection, PABC674 vector; secreted into the medium
Protocol: Binding of BiP to Misfolded Proteins with Crossbeta Structure
Proteins at 5 μg/ml were coated for 1 h at room temperature with agitation, in Microlon high-binding ELISA plates (Greiner) in 50 mM NaHCO3 pH 9.6, except for Aβ that was coated at 20 μg/ml. Buffer was coated as negative control. A twofold dilutions series of cell culture supernatant of HEK 293E cells overexpressing BiP was also coated to the plate for anti-FLAG-tag antibody control purposes. Plates were washed and blocked with ½*Blocking reagent (Roche). Undiluted cell culture supernatant enriched with 0.1% Tween20 was added to the wells with immobilized protein ligands and incubated for 1 h at room temperature with agitation. Medium was discarded and the plate was washed with PBS with 0.1% v/v Tween20. Mouse monoclonal anti-FLAG-tag antibody (Sigma, A8592, anti-FLAG M2PO conjugate) was diluted 1000× in PBS/0.1% Tween20 and added to all wells, including those that are coated with cell culture supernatant. After a 1 h incubation at room temperature with agitation and after washing, wells were overlayed with 3000× diluted RAMPO (DAKOCytomation) in PBS/0.1% Tween20. After 30 minutes the plate was washed and bound peroxidase was visualised with tetramethylbenzidine (TMB, #45.103.20/#45.014.01, Biosource, Nivelles, Belgium). The reaction was stopped after 5 minutes with 10% H2SO4 in H2O. Plates were read at 450 nm.

human BiP [3] = biological target: T1, human BiP; experiment: ELISA: inhibition of BiP binding to crossbeta structure with tPA; settings: threefold diluted supernatant; 10 mM ε-amino caproic acid; no competitor
From the text: The threefold diluted cell supernatants were applied to the ELISA plate in duplicates and BiP binding was subsequently measured as described above. Coat efficiency was checked with specific anti-AGE antibody, anti-albumin antibody and anti-Hb antibody.

[4] = biological target: T2, human mitochondrial HSP60 (Homo sapiens, UniProt P10809); experiment: ELISA: binding of HSP60 to immobilized (misfolded) protein ligands
T2 construct: Dr. W. van Eden, Utrecht University; host or cells: E. coli
Protocol: Recombinant human HSP60 with N-terminal His-tag was a kind gift of Dr. R. van der Zee and Prof. Dr. W. van Eden (Institute of Infectious Diseases and Immunology, Faculty of Veterinary Medicine, Utrecht University, Utrecht, The Netherlands), and was supplied in lyophilized form. The HSP60 was produced in E. coli and purified using Nickel-Sepharose. The HSP60 was lyophilized from 20-40 mM ammonium-bicarbonate solution, after purification, and stored at −20° C. The construct lacks the mitochondrial signal sequence. […] Before use, the lyophilized protein is dissolved at room temperature at 1 mg/ml in 20-40 mM NH4HCO3, resulting in a pH of 7.0. Aliquots are stored at −20° C. or −80° C. The mitochondrial HSP60 is a functional dimer of heptamers (MW(HSP60 monomer)=˜58 kDa), and is involved in multimer protein assembling and aids in transport of unfolded proteins across membranes. For the binding studies, at two occasions separate HSP60 solutions were prepared originating from the same batch of purified protein, lyophilized in separate Eppendorf cups.
Binding of chaperones to immobilized (misfolded) protein ligands was determined using an enzyme linked immuno sorbent assay (ELISA) approach. For this purpose 50 μl/well of potential ligands at indicated concentrations or coat buffer only for control and background measurement purposes, were coated overnight at 4° C. or coated for 1 h at room temperature, with motion, in 50 mM NaHCO3 pH 9.6 (coat buffer). In general, ligands were coated at 5 μg/ml, unless stated otherwise. For example, BiP binding peptides 6BB# and oxLDL were coated at 50 μg/ml. Native haemoglobin (Sigma-Aldrich, H7379), albumin, IgIV Gammagard and ovalbumin controls were prepared from lyophilized stocks. The controls were prepared by dissolving lyophilized proteins at 1 mg/ml in PBS upon resuspending by pipetting, followed by a 30 minutes period at the roller device, at room temperature. The protein solutions were centrifuged for 10 minutes at 16,000*g and diluted in coat buffer. After coating the plates were washed at least three times with 50 mM Tris-HCl pH 7.3, 150 mM NaCl, 0.1% v/v Tween20, and blocked with Blocking reagent (Roche Diagnostics, Almere, The Netherlands; 11112589001), for 1 h at room temperature, with motion. Plates were washed three times and incubated in triplicate with indicated chaperone dilution series, at 50 μl/well, for 1 h at room temperature, with constant motion. For HSP90, 5 mM DTT is incorporated in the binding buffer (PBS/0.1% Tween20) to avoid unwanted disulfide bond formation of the HSP90. Plates were washed three times and incubated with anti-FLAG antibody (mouse antibody, M2, peroxidase conjugate; Sigma, A-8592) for BiP-FLAG-His, anti-His-tag antibody (Mouse Monoclonal Antibody, Cat. No. 70796, Novagen [0.2 mg/ml]) for HSP60, a 1:1 mix of 500-fold diluted anti-HSP90beta antibodies (Stressgen, SPA-643 [mouse monoclonal IgM], SPA-646 [rabbit polyclonal]) for HSP90 and an anti-DnaK antibody (Stressgen, 023SPA-880D [mouse monoclonal antibody]) for DnaK. After four wash cycles, secondary antibodies were added to the wells when required, 50 μl/well, for 45′ at room temperature, with motion. RAMPO and SWARPO were used at 3000 times dilution. […] In a second experiment with more immobilized misfolded proteins and controls, the detection of bound HSP90 with the mix of two anti-HSP90 antibodies was achieved by mixing 1:1500 SWARPO with 1:3000 RAMPO. After 5 washes with wash buffer followed by two washes with PBS, binding of antibodies was assessed. Bound anti-FLAG-PO, peroxidase-conjugated rabbit anti-mouse immunoglobulins (RAMPO, P0260, DAKOCytomation, Glostrup, Denmark) or peroxidase-coupled swine anti-rabbit immunoglobulins (SWARPO, P0217, DAKOCytomation) was visualized with tetramethylbenzidine (TMB, #45.01.20,/#45.014.01, Biosource, Nivelles, Belgium). The reaction was stopped after 5 minutes with 1% H2SO4 in H2O. Plates were read at 450 nm. […]

T1 sequence (P11021 19-654): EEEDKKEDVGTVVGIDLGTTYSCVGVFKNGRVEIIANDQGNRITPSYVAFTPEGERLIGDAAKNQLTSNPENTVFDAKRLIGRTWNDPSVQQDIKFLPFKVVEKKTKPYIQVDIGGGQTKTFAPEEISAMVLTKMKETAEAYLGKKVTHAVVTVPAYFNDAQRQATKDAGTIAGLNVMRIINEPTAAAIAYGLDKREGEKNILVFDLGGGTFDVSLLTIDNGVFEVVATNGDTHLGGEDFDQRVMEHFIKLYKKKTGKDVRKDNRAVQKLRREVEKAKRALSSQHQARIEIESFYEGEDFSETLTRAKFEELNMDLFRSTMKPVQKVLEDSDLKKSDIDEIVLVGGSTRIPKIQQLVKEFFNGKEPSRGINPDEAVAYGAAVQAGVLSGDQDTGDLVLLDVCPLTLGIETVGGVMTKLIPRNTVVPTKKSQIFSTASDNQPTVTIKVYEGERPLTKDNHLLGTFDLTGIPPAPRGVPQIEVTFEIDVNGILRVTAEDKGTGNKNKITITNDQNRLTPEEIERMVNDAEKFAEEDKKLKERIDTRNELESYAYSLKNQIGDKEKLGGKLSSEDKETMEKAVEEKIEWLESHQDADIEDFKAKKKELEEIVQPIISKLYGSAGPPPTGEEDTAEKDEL
T2 sequence (P10809 27-573): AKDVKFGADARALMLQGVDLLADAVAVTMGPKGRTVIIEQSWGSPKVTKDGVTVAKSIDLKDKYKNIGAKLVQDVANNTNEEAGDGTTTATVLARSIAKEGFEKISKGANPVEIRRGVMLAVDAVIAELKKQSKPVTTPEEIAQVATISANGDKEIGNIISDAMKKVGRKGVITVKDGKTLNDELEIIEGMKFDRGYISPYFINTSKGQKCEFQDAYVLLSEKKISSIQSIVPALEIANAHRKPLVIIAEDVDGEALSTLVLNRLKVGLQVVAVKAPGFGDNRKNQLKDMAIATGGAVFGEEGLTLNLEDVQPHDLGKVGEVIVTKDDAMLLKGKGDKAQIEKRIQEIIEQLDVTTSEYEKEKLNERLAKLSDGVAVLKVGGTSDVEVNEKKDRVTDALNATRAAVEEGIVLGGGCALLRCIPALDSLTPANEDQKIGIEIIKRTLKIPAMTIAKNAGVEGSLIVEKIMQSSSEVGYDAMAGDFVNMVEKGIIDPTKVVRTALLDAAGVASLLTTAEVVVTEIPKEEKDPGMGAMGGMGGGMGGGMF

Substance | TEM [1] | Binding of BiP to immobilized protein (ELISA) (human BiP [2]) | Binding of BiP to coated ligand (human BiP [3]) | Appearance on TEM images [1] | Binding of concentration series of HSP60 to coated ligand [4]
AGEYYAAL [6BB7] | Very few small |  |  |  | 
BSA-AGE |  | binds | binds | non-fibrillar amorphous aggregates | has been established
GSNKGAIIGLM [6BB6, Human Aβ (25-35)] | Thin aggregated |  |  |  | has been established
Hb: non-modified human haemoglobin control |  |  | some binding |  | did not bind
HbAGE: human haemoglobin glycated with glucose-6-phosphate for 75 weeks |  | binds |  | non-fibrillar amorphous aggregates | has been established
KLVFFAE [6BB12, Human Aβ16-22] | Large dense clusters |  |  |  | did not bind
native BSA: non-modified bovine serum albumin control |  | not | hardly |  | did not bind
